Source: US10202584B2, “Red-shifted luciferase-luciferin pairs for enhanced bioluminescence” (The Regents of the University of California, priority 2016, dated 2019)

System: HEK 293T cells
Assay: Bioluminescence relative to FLuc with P2A bicistronic vectors in HEK 293T cells
Format: cell-based, Human
Conditions: 10,000 HEK 293T cells, 30 μM substrates, first 2 min integrated
Source text: FIG. 12 is a panel examining the impact of luciferase protein levels on bioluminescence intensities. (12a) Western blot analysis of HEK 293T cells expressing luciferases with C-terminal c-Myc tags. The relative proteins levels quantified from individual bands are shown in parentheses. These enzymes were expressed at different levels but the differences were within 3-fold. […] Under this condition, two luciferases in the same vectors are expected to be expressed near-stoichiometrically.

B1: NanoLuc: luciferase engineered from a 19 kDa domain of Oplophorus luciferase (SEQ ID NO: 1) (protein)
chain: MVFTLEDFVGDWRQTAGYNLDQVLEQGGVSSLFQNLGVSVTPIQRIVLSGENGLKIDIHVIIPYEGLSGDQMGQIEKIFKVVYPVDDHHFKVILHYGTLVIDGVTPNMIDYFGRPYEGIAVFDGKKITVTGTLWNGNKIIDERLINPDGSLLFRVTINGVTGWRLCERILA
modifications: Engineered mutant of Oplophorus gracilirostris polypeptide
  bioluminescence relative to FLuc, P2A bicistronic vectors: Large bioluminescence enhancements
